Results taken from the supplement of paper PMC12042874.
± gives the uncertainty stated by the source.

Assay: amyloid nucleation score (Sup35N fusion, yeast selection) (log enrichment); library NNK1; higher = more nucleation; inactive = no reads after selection
Summary of the method: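 The nucleation score is the DiMSum log enrichment of output over input reads, centred on the mode score of non-aggregating sequences. Only sequences with 100 or more input reads were scored, using Illumina sequencing of input and output plasmid inserts. Psi-negative yeast expressing Sup35N fused to peptides of 20 random codons were induced 24 hours with 100 μM copper sulfate and grown 7 days at 30°C on medium lacking adenine and uracil.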

Substance | amyloid nucleation score
PDIRYAFVNFDYLATIWVNG | -1.86 ± 1.7
VRVVSTSRILFHGFFRNNKG | 0.567 ± 0.33
VRKISIFFMNSWVWLSSRFH | 0.069 ± 0.49
TVSKNMYR | -0.259 ± 0.5
NGGAPSGNSGFKYSCKGWFV | -0.452 ± 0.52
CSCINSHLWSTSG | 0.386 ± 0.32
LGPLYQFDICGKGTGYGDHE | -0.673 ± 0.71
ILSRCVC | 0.608 ± 0.37
WYVMRLKLVCI | 0.156 ± 0.87
TDNDLVHYCTM | 0.029 ± 0.59
VYWRFPRSNGEWYNMLVLKD | -0.576 ± 0.53
RLFTYYTVRNPYVADKFYNR | 5.174 ± 0.051
NCGNMAATSFVNEIYL | inactive
ECVTCSWF | 0.011 ± 0.38
SSRNDLDVQYLTVDQRPSMP | 1.66 ± 0.56
PMMLDDTPKRSKQPHWIGGH | -0.584 ± 2.1
MMTACLFIIF | 5.925 ± 0.057
SHDSKAAHPWSLRNYVATRR | 0.182 ± 0.42
FGSMFVRLFFGSLNKYGMVK | -0.712 ± 0.92
MACKIIYVTVEGMLRSRS | 1.31 ± 0.56
YFLTFRFCFSVNEVIDPWCA | -0.725 ± 1.1
AHYPFI | 0.065 ± 1.5
LHWWRFFVEVTLPCLGFLLS | -0.308 ± 0.76
VRSLARNG | 0.947 ± 0.7
YFPIGYFVRKEDYGTCENDD | 0.386 ± 0.31

Substance | amyloid nucleation score
GGLQKMVPNSNLCFLEDP | -0.713 ± 1.7
KMMPWVLLGRKLRLWRLCTK | -0.463 ± 0.56
RSEATLYRRSSDGVKNVLQK | -0.535 ± 0.32
VCKWSVMNHFVVITYHYVMA | 0.671 ± 0.3
VLSKFIVSDLMAISQNKLHR | inactive
RARDV | 0.167 ± 0.38
LQPLLISIKRRFLHYVSQNM | -0.073 ± 0.66
MCMSRP | -1.05 ± 0.9
LMPLLS | 0.025 ± 0.36
IFWGWSIQG | 1.17 ± 0.58
FFNYD | -0.628 ± 0.8
HFVGMMMKSGGFARLTYNKG | 0.443 ± 0.45
IRNIRRI | -0.262 ± 0.28
FTSPLKNHHLFGFAS | -0.345 ± 0.6
RLSIS | inactive
VYSEVSFDF | inactive
CFDVQ | 2.29 ± 0.61
GWTTYPSNN | 0.996 ± 0.37
DRYVYEFSYVLFWLFILVM | 0.128 ± 0.44
SSMGPFLSV | 0.014 ± 0.48
LEAKSAGRVACQHGVALRVG | 0.674 ± 0.47
RYRRATTQFAKGHCRSLSFK | 0.91 ± 0.47
FKYRVGDTSCMVCNVWYGGD | 7.552 ± 0.057
FSDMDVTQPENKDWHLEE | 1.23 ± 0.9
EDMWNFDRSHGLWYEGTSAM | 0.72 ± 0.69

Substance | amyloid nucleation score
LLQAQHSF | 0.208 ± 0.21
HYIVDLEQLQWDVWGIFSDS | 0.058 ± 0.73
NQRYHYLAAQWVDSWLVGCS | -0.256 ± 0.6
VYCVCYLWLKVVHKSLDTLS | 2.23 ± 0.079
QDRHYRNAKGSNSCYIRRKS | 1 ± 0.35
CVLFESQ | -0.188 ± 0.44
YLGQWFNYTCYQWVMV | 1.37 ± 0.21
CHCCEVSWCSVWKVCIYCNI | 5 ± 0.088
TYLRMCGSSTR | -0.14 ± 0.3
VLKVCTWIKYLQSV | -0.279 ± 0.33
FNWLTTEFRW | -0.037 ± 0.36
TLDRWTVWDLR | 0.275 ± 0.32
EQPGVHYQNQFYKHVLYNAS | 0.587 ± 0.38
LDVKSYAQVKRFSWSHSAFM | 1.07 ± 0.4
DENDSGYELYFLGAGHTGSY | -0.157 ± 0.39
HHLDPGQTHEIVSCSTWFTF | -0.397 ± 0.29
PQVVRRGTHKVGRDNG | 0.186 ± 1.6
VCTYGFGC | inactive
VVDEKREVRSLANVNTASSL | 0.1 ± 0.28
TRSMALL | -0.098 ± 0.71
QFSYTRIEVVSDVHLVNVVN | 0.373 ± 0.3
FSRDLLARGVDTPSVEFRSS | -0.362 ± 0.72
FLSEE | -0.584 ± 0.44
